Data published in article doi:10.1101/2024.09.22.614354 (bioRxiv, 2024).

Assays:
Experiment in all cases: fluorescence polarisation
Rb^P S751Y = molecular target: T1, Rb^P S751Y (human, UniProt P06400 380-788, S751Y)
T1 sequence: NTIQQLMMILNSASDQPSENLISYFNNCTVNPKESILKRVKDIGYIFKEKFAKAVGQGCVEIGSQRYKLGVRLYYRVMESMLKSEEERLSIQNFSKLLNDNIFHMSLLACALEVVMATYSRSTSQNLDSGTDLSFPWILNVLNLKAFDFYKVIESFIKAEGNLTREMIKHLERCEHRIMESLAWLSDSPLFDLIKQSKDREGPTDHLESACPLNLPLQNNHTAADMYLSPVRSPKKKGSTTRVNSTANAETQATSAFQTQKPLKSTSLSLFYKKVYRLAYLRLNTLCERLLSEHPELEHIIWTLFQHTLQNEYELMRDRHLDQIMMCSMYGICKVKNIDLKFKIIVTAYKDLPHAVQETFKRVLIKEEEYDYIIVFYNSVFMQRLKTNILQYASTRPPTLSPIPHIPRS

Rb^P R741C = molecular target: T2, Rb^P R741C (human, UniProt P06400 380-788, R741C)
T2 sequence: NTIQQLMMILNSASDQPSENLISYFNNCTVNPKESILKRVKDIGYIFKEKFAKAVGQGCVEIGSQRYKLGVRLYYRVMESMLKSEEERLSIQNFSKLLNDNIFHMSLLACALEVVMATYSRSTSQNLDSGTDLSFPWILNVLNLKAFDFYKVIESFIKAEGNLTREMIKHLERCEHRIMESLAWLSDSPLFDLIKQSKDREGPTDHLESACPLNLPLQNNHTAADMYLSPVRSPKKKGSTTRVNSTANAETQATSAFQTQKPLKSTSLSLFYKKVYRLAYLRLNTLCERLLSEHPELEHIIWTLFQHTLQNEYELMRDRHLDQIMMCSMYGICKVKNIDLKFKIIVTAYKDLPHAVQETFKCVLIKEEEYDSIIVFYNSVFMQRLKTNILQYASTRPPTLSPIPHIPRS

Rb^P R741S = molecular target: T3, Rb^P R741S (human, UniProt P06400 380-788, R741S)
T3 sequence: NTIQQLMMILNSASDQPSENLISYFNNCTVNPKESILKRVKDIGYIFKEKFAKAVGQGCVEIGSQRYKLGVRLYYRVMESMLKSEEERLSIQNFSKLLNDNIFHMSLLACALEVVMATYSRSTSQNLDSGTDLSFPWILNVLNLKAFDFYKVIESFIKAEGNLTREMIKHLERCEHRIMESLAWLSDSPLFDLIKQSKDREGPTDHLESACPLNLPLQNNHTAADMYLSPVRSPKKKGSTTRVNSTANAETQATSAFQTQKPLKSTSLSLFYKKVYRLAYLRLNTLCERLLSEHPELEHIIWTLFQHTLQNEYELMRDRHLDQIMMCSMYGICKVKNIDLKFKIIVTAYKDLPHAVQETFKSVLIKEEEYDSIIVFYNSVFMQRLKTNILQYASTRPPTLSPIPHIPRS

Rb^P R656Q = molecular target: T4, Rb^P R656Q (human, UniProt P06400 380-788, R656Q)
T4 sequence: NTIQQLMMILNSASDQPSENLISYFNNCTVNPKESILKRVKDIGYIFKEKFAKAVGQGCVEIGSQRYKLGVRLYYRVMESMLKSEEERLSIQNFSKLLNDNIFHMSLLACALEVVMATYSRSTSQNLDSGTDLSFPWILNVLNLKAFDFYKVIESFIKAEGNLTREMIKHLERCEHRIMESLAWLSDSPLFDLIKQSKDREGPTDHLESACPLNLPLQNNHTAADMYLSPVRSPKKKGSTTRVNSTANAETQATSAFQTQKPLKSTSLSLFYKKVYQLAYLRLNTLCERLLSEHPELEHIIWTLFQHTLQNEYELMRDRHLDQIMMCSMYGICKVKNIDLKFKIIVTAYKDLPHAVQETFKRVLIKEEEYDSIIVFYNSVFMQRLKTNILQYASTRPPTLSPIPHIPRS

Rb^P H555Y = molecular target: T5, Rb^P H555Y (human, UniProt P06400 380-788, H555Y)
T5 sequence: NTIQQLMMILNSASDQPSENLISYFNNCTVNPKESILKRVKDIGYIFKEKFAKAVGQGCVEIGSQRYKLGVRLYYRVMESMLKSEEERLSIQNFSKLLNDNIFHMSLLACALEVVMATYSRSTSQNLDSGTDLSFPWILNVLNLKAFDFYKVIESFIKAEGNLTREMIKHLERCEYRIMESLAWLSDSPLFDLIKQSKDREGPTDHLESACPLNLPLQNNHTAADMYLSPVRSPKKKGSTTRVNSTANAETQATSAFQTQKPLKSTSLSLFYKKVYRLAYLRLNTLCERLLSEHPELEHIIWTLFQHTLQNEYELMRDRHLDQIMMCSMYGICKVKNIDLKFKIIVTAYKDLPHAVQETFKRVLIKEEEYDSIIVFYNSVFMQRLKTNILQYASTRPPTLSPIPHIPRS

DLYCYEQLN (not fully specified; TMR fluorescent label (TMR-E7^LxCxE)) [TMR-E7^LxCxE (LxCxE peptide of the E7 oncoprotein from HPV, TMR-labeled)]
Kd (Rb^P S751Y): 12 nM | binding result (Rb^P R741C): binds | binding result (Rb^P R741S): binds | binding result (Rb^P R656Q): binds | binding result (Rb^P H555Y): binds
